Key:
[1] = target: T1, oxMIF: recombinant human MIF immobilized into ELISA plates (transforming MIF to oxMIF) (human, UniProt P14174 2-115); test: ELISA, antibody titrated on plate-immobilized recombinant human MIF (oxMIF), protein L-HRP; EC50 of 4-parameter fit given as KD, mean of two experiments
T1 construct: Same polypeptide as redMIF; differs in conformation (oxMIF isoform); also called immobilized MIF; immobilized oxMIF
Description: (§1) Recombinant human MIF diluted in PBS at 1 μg/ml was immobilized into ELISA plates overnight at 4° C. (transforming MIF to oxMIF according to Thiele et al., 2015). After blocking, serial dilutions of anti-oxMIF antibodies were added to the plates. Finally, bound antibodies were detected using a protein L-HRP conjugate and tetramethylbenzidine (TMB) as substrate. The chromogenic reaction was stopped with 3M H₂SO₄ and OD was measured at 450 nm.

[2] = target: T2, Human oxMIF (human recombinant MIF treated with 0.2% Proclin300, oxMIF surrogate) (human, UniProt P14174 2-115, treated with 0.2% Proclin300 (active component 5-chloro-2-methyl-4-isothiazolin-3-one) for 3 h to transform MIF into an oxMIF surrogate); test: SPR (Biacore 3000), antibody amine-coupled to CM5 chip, Proclin300-treated MIF 50-150 nM as analyte, 1:1 Langmuir with mass transfer; mean of flow cells 2-4, SD +/-0.38 nM
T2 construct: SPR analyte; also called Proclin300 treated MIF; soluble human oxMIF
Description: FC1 was used as reference cell and was only reacted with buffers. Mouse or human recombinant MIF were diluted in HBS-EP buffer (GE Healthcare) to concentrations of 50, 75, 100, or 150 nM in the presence of 0.2% Proclin300 (active component 5-chloro-2-methyl-4-isothiazolin-3-one; Sigma) to transform MIF into an oxMIF surrogate (Thiele M et al., 2015) for 3 h at room temperature. Proclin300 treated MIF was applied to immobilized anti-oxMIF antibodies at a flow rate of 30 μl/min for 3 min using a Biacore™ 3000 Instrument (GE Healthcare). Dissociation time was 300 seconds, and the chip was regenerated using 10 mM HCl for 3 minutes. The kinetics of the concentration series were analyzed by local simultaneous association/dissociation fitting of each binding curve after subtraction of background from the reference cell (FC1) using the iterative Langmuir 1:1 interaction model with mass transfer compensation provided by the BiaEvaluation 4.1 software (GE Healthcare). Data are represented as mean+/−SD (standard deviation) of the calculated KD values of Flow Cells 2-4.

[3] = target: T1, oxMIF: recombinant human MIF …; test: ELISA, antibody titrated on plate-immobilized recombinant human MIF (oxMIF), goat anti-human IgG(Fc)-HRP; EC50 of 4-parameter fit given as KD, two experiments
Description: as §1, with “with Goat anti-human IgG(Fc)-HRP” for “using a protein L-HRP”

[4] = target: T1, oxMIF: recombinant human MIF …; test: ELISA on plate-immobilized recombinant human MIF (oxMIF)
Description: as §1

T1 sequence (P14174 2-115 limits assumed): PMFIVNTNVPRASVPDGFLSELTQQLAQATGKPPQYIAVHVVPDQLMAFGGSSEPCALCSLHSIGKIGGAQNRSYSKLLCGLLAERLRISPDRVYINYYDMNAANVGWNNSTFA
T2 sequence (P14174 2-115 limits assumed): as above

Binder | Kd [1] [nM] | further results
anti-oxMIF antibody C0008 (control antibody) (antibody, human IgG1, kappa, V domains shown, Human IgG with wt Fc) VH: EVQLLESGGGLVQPGGSLRLSCAASGFTFSIYSMNWVRQAPGKGLEWVSSIGSSGGTTYYADSVKGRFTISRDNSKNTLYLQMNSLRAEDTAVYYCAGSQWLYGMDVWGQGTTVTVSS VL: DIQMTQSPSSLSASVGDRVTITCRSSQRIMTYLNWYQQKPGKAPKLLIFVASHSQSGVPSRFRGSGSETDFTLTISGLQPEDSATYYCQQSFWTPLTFGGGTKVEIKR | 0.7 | Kd [2]: 3.49 nM; Kd [3]: 0.2 nM
anti-oxMIF antibody C0098 (antibody, human IgG1, kappa, Fc mutated to increase effector functions) heavy: EVQLLESGGGLVQPGGSLRLSCAASGFTFSIYSMNWVRQAPGKGLEWVSSIGSSGGTTYYADSVKGRFTISRDNSKNTLYLQMNSLRAEDTAVYYCAGSQWLYGMDVWGQGTTVTVSSASTKGPSVFPLAPSSKSTSGGTAALGCLVKDYFPEPVTVSWNSGALTSGVHTFPAVLQSSGLYSLSSVVTVPSSSLGTQTYICNVNHKPSNTKVDKRVEPKSCDKTHTCPPCPAPELLGGPDVFLFPPKPKDTLMISRTPEVTCVVVDVSFEDPEVKFNWYVDGVEVHNAKTKPREEQYNSTYRVVSVLTVLHQDWLNGKEYKCKVTNKALPAPEEKTISKAKGQPREPQVYTLPPSREEMTKNQVSLTCLVKGFYPSDIAVEWESNGQPENNYKTTPPVLDSDGSFFLYSKLTVDKSRWQQGNVFSCSVMHEALHNHYTQKSLSLSPG light: DIQMTQSPSSLSASVGDRVTITCRSSQRIMTYLNWYQQKPGKAPKLLIYVGSHSQSGVPSRFRGSGSETDFTLTISGLQPEDSATYYCQQSFFTPLTFGGGTKVEIKRTVAAPSVFIFPPSDEQLKSGTASVVCLLNNFYPREAKVQWKVDNALQSGNSQESVTEQDSKDSTYSLSSTLTLSKADYEKHKVYACEVTHQGLSSPVTKSFNRGEC | 0.7 | 
anti-oxMIF antibody C0073 (antibody, human IgG1, kappa) heavy: not shown light: DIQMTQSPSSLSASVGDRVTITCRSSQRIMTYLNWYQQKPGKAPKLLIYVGSHSQSGVPSRFRGSGSETDFTLTISGLQPEDSATYYCQQSFFTPLTFGGGTKVEIKRTVAAPSVFIFPPSDEQLKSGTASVVCLLNNFYPREAKVQWKVDNALQSGNSQESVTEQDSKDSTYSLSSTLTLSKADYEKHKVYACEVTHQGLSSPVTKSFNRGEC | 1 | 
anti-oxMIF antibody C0099 (antibody, human IgG1, kappa, Fc mutated to increase effector functions) heavy: EVQLLESGGGLVQPGGSLRLSCAASGFTFSIYSMNWVRQAPGKGLEWVSSIGSSGGTTYYADSVKGRFTISRDNSKNTLYLQMNSLRAEDTAVYYCAGSQWLYGMDVWGQGTTVTVSSASTKGPSVFPLAPSSKSTSGGTAALGCLVKDYFPEPVTVSWNSGALTSGVHTFPAVLQSSGLYSLSSVVTVPSSSLGTQTYICNVNHKPSNTKVDKKVEPKSCDKTHTCPPCPAPELLGGPDVFLFPPKPKDTLMISRTPEVTCVVVDVSHEDPEVQFNWYVDGVEVHNAKTKPREEQFNSTFRVVSVLTVVHQDWLNGKEYKCKVSNKALPAPEEKTISKTKGQPREPQVYTLPPSREEMTKNQVSLTCLVKGFYPSDIAVEWESNGQPENNYKTTPPMLDSDGSFFLYSKLTVDKSRWQQGNVFSCSVMHEALHNHYTQKSLSLSPG light: DIQMTQSPSSLSASVGDRVTITCRSSQRIMTYLNWYQQKPGKAPKLLIYVGSHSQSGVPSRFRGSGSETDFTLTISGLQPEDSATYYCQQSFFTPLTFGGGTKVEIKRTVAAPSVFIFPPSDEQLKSGTASVVCLLNNFYPREAKVQWKVDNALQSGNSQESVTEQDSKDSTYSLSSTLTLSKADYEKHKVYACEVTHQGLSSPVTKSFNRGEC | 0.4 | 
anti-oxMIF antibody C0083 (antibody, human IgG1, kappa) heavy: not shown light: DIQMTQSPSSLSASVGDRVTITCRSSQRIMTYLNWYQQKPGKAPKLLIYVGSHSQSGVPSRFRGSGSETDFTLTISGLQPEDSATYYCQQSFFTPLTFGGGTKVEIKRTVAAPSVFIFPPSDEQLKSGTASVVCLLNNFYPREAKVQWKVDNALQSGNSQESVTEQDSKDSTYSLSSTLTLSKADYEKHKVYACEVTHQGLSSPVTKSFNRGEC | 0.5 | 
anti-oxMIF antibody C0097 (antibody, human IgG1, kappa, Fc mutated to increase effector functions) heavy: not shown light: DIQMTQSPSSLSASVGDRVTITCRSSQRIMTYLNWYQQKPGKAPKLLIYVGSHSQSGVPSRFRGSGSETDFTLTISGLQPEDSATYYCQQSFFTPLTFGGGTKVEIKRTVAAPSVFIFPPSDEQLKSGTASVVCLLNNFYPREAKVQWKVDNALQSGNSQESVTEQDSKDSTYSLSSTLTLSKADYEKHKVYACEVTHQGLSSPVTKSFNRGEC | 0.8 | 
anti-oxMIF antibody C0100 (antibody, human IgG1, kappa, Fc mutated to increase effector functions) heavy: EVQLLESGGGLVQPGGSLRLSCAASGFTFSIYSMNWVRQAPGKGLEWVSSIGSSGGTTYYADSVKGRFTISRDNSKNTLYLQMNSLRAEDTAVYYCAGSQWLYGMDVWGQGTTVTVSSASTKGPSVFPLAPSSKSTSGGTAALGCLVKDYFPEPVTVSWNSGALTSGVHTFPAVLQSSGLYSLSSVVTVPSSSLGTQTYICNVNHKPSNTKVDKRVEPKSCDKTHTCPPCPAPELVGGPSVFLLPPKPKDTLMISRTPEVTCVVVDVSHEDPEVKFNWYVDGVEVHNAKTKPPEEQYNSTLRVVSVLTVLHQDWLNGKEYKCKVSNKALPAPIEKTISKAKGQPREPQVYTLPPSRDELTKNQVSLTCLVKGFYPSDIAVEWESNGQPENNYKTTPLVLDSDGSFFLYSKLTVDKSRWQQGNVFSCSVMHEALHNHYTQKSLSLSPG light: DIQMTQSPSSLSASVGDRVTITCRSSQRIMTYLNWYQQKPGKAPKLLIYVGSHSQSGVPSRFRGSGSETDFTLTISGLQPEDSATYYCQQSFFTPLTFGGGTKVEIKRTVAAPSVFIFPPSDEQLKSGTASVVCLLNNFYPREAKVQWKVDNALQSGNSQESVTEQDSKDSTYSLSSTLTLSKADYEKHKVYACEVTHQGLSSPVTKSFNRGEC | 0.5 | 

Continued by falling Kd [1], values first:

Kd [1] [nM] | Binder | further results
5.2 | anti-oxMIF antibody C0077 (antibody, human IgG1, kappa, V domains shown, Differs from C0076 only by Y36F in VL) VH: EVQLQESGGGLVQPGGSLRLSCAASGFTFSIYSMNWVRQAPGKGLEWVSSIGSSGGTTYYADSVKGRFTISRDNSKNTLYLQMNSLRAEDTAVYYCAGSQWLYGMDVWGQGTTVTVSS VL: DIQMTQSPSSLSASVGDRVTITCRSSQRIMTYLNWFQQKPGKAPKLLIYVGSHSQSGVPSRFRGSGSETDFTLTISGLQPEDSATYYCQQSFWTPLTFGGGTKVEIKR | fold reduction in affinity compared to C0076 [4]: 5 fold
1.6 | anti-oxMIF antibody C0078 (antibody, human IgG1, kappa) heavy: not shown light: DIQMTQSPSSLSASVGDRVTITCRSSQRIMTYLNWYQQKPGKAPKLLIYVGSHSQSGVPSRFRGSGSETDFTLTISGLQPEDSATYYCQQSFFTPLTFGGGTKVEIKRTVAAPSVFIFPPSDEQLKSGTASVVCLLNNFYPREAKVQWKVDNALQSGNSQESVTEQDSKDSTYSLSSTLTLSKADYEKHKVYACEVTHQGLSSPVTKSFNRGEC | 
1.1 | anti-oxMIF antibody C0076 (antibody, human IgG1, kappa, V domains shown) VH: EVQLQESGGGLVQPGGSLRLSCAASGFTFSIYSMNWVRQAPGKGLEWVSSIGSSGGTTYYADSVKGRFTISRDNSKNTLYLQMNSLRAEDTAVYYCAGSQWLYGMDVWGQGTTVTVSS VL: DIQMTQSPSSLSASVGDRVTITCRSSQRIMTYLNWYQQKPGKAPKLLIYVGSHSQSGVPSRFRGSGSETDFTLTISGLQPEDSATYYCQQSFWTPLTFGGGTKVEIKR | 
0.5 | anti-oxMIF antibody C0090 (antibody, human IgG1, kappa) heavy: not shown light: DIQMTQSPSSLSASVGDRVTITCRSSQRILTYLNWYQQKPGKAPKLLIYVGSHSQSGVPSRFRGSGSETDFTLTISGLQSEDSATYYCQQSFFTPLTFGGGTKVEIKRTVAAPSVFIFPPSDEQLKSGTASVVCLLNNFYPREAKVQWKVDNALQSGNSQESVTEQDSKDSTYSLSSTLTLSKADYEKHKVYACEVTHQGLSSPVTKSFNRGEC | 
